This series is described as follows: label from the status in PepcDB records.

Take “MKQMKFKYAYQLFFTQFIILLIACIMIGVLVSHSLKDYFYQSQVDDLTSYGQTISRDIRYSPQDATMQVLNTYQRILDVKKIHYTIKNANDETIYPTQMNQPLPKDFSISADDKKKLESGETVSKKIDNRFNKEMTIVYVPIMNGDKFVGSIVLNSPISGTEQVIGTINRYMFYTILLSITVALILSAILSKLQVNRINKLRAATKDVIQGNYNARLKENNFDEIGALAIDFNKMTQTLETSQEEIERQEKRRRQFIADVSHEMRTPLTTISGLTEGLVNDIIPKSETDRCIALIDTEARRLTKLVNENLDYEKIRSNKIKLQKTRFNGKEFLELIKEQLDYVASEKGNTITVAIDKDMAIYADYDRLTQVFINIVKNSVQFTENGQITLTGTQDYKESVLTITDTGIGMNTEELEQIWERFYKADMSRTNTAFGESGIGLSIVKQLIEYHDGSITVTSEPNKGTSFTIRLPFFQDNEQ”: the protein production result is reported as “failed”.
For “MKQPTAVIFDWYNTLIDTSINIDRTTFYQVLDQMGYKNIDLDSIPNSTIPKYLITLLGKRWKEATILYENSLEKSQKSDNFMLNDGAIELLDTLKENNITMAIVSNKNGERLRSEIHHKNLTHYFDSIIGSGDTGTIKPSPEPVLAALTNINIEPSKEVFFIGDSISDIQSAIEAGCLPIKYGSTNIIKDILSFKNFYDIRNFICQLINI”, the protein production result is reported as “not failed”.
Take “MKQRRKGQENSDTEEMISRIYPYITRVFDIYEIQKSGEILYFFGTPKTDAENVMGELWAPLEQRGLGGTLKYELGEHVLIVTPVKKAKEKHWVNLALFIATVFTTMICGAWLFGVDLWSEPLQIFQGLPFTLAILAVLGSHEMAHYAMARHHGMKTSLPYFIPFPTFIGTMGAVIRYRGPIPDRKALFDVGIAGPLVGLLVSIVVTIIGLNLDVPAVKPLPDSLMFELGLPPLFVMLQKLVGVTGSNLHPVAFAGWVGMFVTLLNLLPAGQLDGGHVLRAMLGKKADWVSSMMPRILLMIGIYVVYGLKGDGFIWIFWALFLWAFAAAGHPSPLHDKMKLDRKRILIGILTFILGLLCFTLIPFKPIT”: the protein production entry is on record as “failed”.
To “MKQSKIRSVLQSIALLVLAGTAAAEPKLEKITHGRFEQIPVLRPDGEPQRVVIWFSGAGHVDQRTRQAELLRQDGAMVALVDTTHLYKVLAADSNHCTFSVGDVENLSRYLQAYYRDKTYRLPLLVGDGDGSGLVYAVAAQAPENILAGVVTDGLCP” belongs “failed”; to “MKQSLQIWLEAARPKTLPLALVSILTGSVLAYSAGHFSLTIAIMAFATATLLQILSNLANDYGDAVKGTDNENRLGPQRAMQTGAVSAKQMKQAIIFNIVLTAISGLVLVFYALSSPESIITFIGLGILAIIAAIAYTMGSKPYGYVGLGDISVFLFFGLLGVSGTYFLHTGHVDTTLFLPALGCGLLAVAVLNINNMRDIENDRECGKRTVAVRLGQHKAKQYHFILLGGAILAFAAYLLIQDKPLWISLPFLLSVYVVIHHGKAVWDTEKPAQIAPMLPVIVKCSLVTNVLFATIVVAQTLVS”, “failed”; to “MKQTELLKGILEGLVLAIIQRKETYGYEITKILNDQGFTEIVEGTVYTILLRLEKNQWVIAEKKPSEKGPMRKFYRLTSSGEAELADFWQRWTLLSKQVNKMKKNGGIEHVKF”, “not failed”.
In the case of “MKRADIKRRPLADTTLTGLEPEAKEYRELDGNGLYFRVKPDGGKSWQLRYKRPAGNWAWMGLGGYPEVSGALAREKAAELRKTISSGIDPLEQKRSAKAAIDAAKTRTFRAAADAWLKAKEEKGLAPSTLNKIRTYLDKDILPALGDKPLDEITRTDCAELQASIEARDAHNVAEKCRTWINQIFGRAIGLGLTENDPGSRLRDIAAQAPKTQQHPHLLEPELGEFLTALKNTPSRLTARTAAWLCIWTASRPGMVRLAEWKEFDLDKATWTTPAAKMKMRRDFVCPLPHQAIAALKELHCLTGRSRWLFPGVGAKNPTISENTINKVFATIGYKGRLVGHGTRHTASTLLREHGWPKEHVEAQLAHKEEGISGVYNKAQYLEQRITMMQWYADHLDALEQGKVIQGQFGKAL”, the protein production entry is on record as “failed”.
For “MKRALEFLKECGVFYLATNEGDQPRVRPFGAVFEYEGKLYIVSNNTKKCFKQMIQNPKVEISGMNKKGQWIRLTGEVANDDRREVKELALEAVPSLKNMYSVDDGIFAVLYFTKGEGTICSFKGENETFSL”, the protein production entry is “not failed”.
With “MKRAYKIEINPTDDQKSKIHQTIGVSRFIYNFYIAHNKEIYEKEGKFVSGMDFSKWLNNEYIPNNQDKKWIKEVSSKATKQAIMNGDKAFKDFFKKAKGFPRFKKKKNQDVKAYFPKNNKTDWTLERHRVKIPTLGWVRLKEFGYIPKNSVVKSGTVSQKADRYYVSILVEETYIKISNPNNEGLGIDLGIKEFAICSNGNKFKNINKTSTVKKIEKKLKREQRKLSRKYESLKIRNKNIKEGRATRQNIQKQVVKVQRLHQRLANIRTDYINKTVFSIVKQKPSYITIEDLAVSNMMKNKHLSKAISSQKFFEFKTKLMSKCKQNNIELRIVDRFYPSSKTCSNCGKIKKDLKLSDRIYKCDCGFTIDRDLNASINLKNAKEYKIA”, the protein production entry was “failed”.
In the case of “MKRGEELPPLEIEVTRTLIVAGAIASRDYQDVHHDAESARRRGSPDIFMNILTTNGLVGRYITDHFGPGAVLRKVAIRLGAPNYPGDTMVLTGTVVEVEGDTATVKVIGANGIGTHVRGTVTVTVPPGSASLEHHHHHH”, the protein production entry is listed as “failed”.
With “MKRIFSLLEKTWLGAPIQFAWQKTSGNYLAVTGADYIVKIFDRHGQKRSEINLPGNCVAMDWDKDGDVLAVIAEKSSCIYLWDANTNKTSQLDNGMRDQMSFLLWSKVGSFLAVGTVKGNLVIYNHQTSRKIPVLGKHTKRITCGCWNAENLPALGGEDKMITVSNQEGDTIRQTQVRSEPSNMQFFLMKMDDRTSAAESMISVVLGKKTLFFLNLNEPDNPADLEFQQDFGNIVCYNWYGDGRIMIGFSCGHFVVISTHTGELGQEIFQARNHKDNLTSIAVSQTLNKVATCGDNCIKIQDLVDLKDMYVILNLDEENKGLGTLSWTDDGQLLALSTQRGSLHVFLTKLPILGDACSTRIAYLTSLLEVTVANPVEGELPITVSVDVEPNFVAVGLYHLAVGMNNRAWFYVLGENAVKKLKDMEYLGTVASICLHSDYAAALFEGKVQLHLKAKSWMLTKNVRLGFSQQWMISAVSYAMP”, the protein production result was “failed”.
For the sequence “MKRIHVRYKQIRRFFLLLGLVIIAAYVAFVLYRYWDHWLLLSNPQKAIENFEQQFRSENLFNFLVLTVLTSLTAAIPFLSSSVLSVFNGVVFGPWIGVLMNTIGNILGHFFLIQMMSRVDLTERDSKFNHHLERLSQIKNPYLALTLGYMIPFIPSFLVDYMVLDTKIPWHRWLPCLTLGVIPTSILYAFGGHAIIAGNMKQLILIVLLALILLAIYKRFEKKKG”, the protein production result is reported as “failed”.
As for “MKRKIIVACGGAVATSTMAAEEIKELCQSHNIPVELIQCRVNEIETYMDGVHLICTTARVDRSFGDIPLVHGMPFVSGVGIEALQNKILTILQG”, the protein production result is on record as “not failed”.
To “MKRKKLSIFILSAAIVTSSVSYGMTAKADEVKETKGYNYNVNLSEQKAVANNKISVKKVNGEILGYANPFTMLQILNMNGKTVEVITQSGLRGYVDANEFTLVESAVNDKLIEKNIEGHVTNVSTVLNLRKEPRIGAEIINRLLNNTKVNILGKQGSWYKIELNGQKGYVYGMFLNEGTMKENSSKTIANKKSEVKSKDKKEKKSSVKKEAKKEVVSGVKAKVVQKQREEAKANMTSEAKPAINKDAKSNNKVEVKSEVKKEAKNEVKTEMNSSTKVETSQVVTSEMVQAVNTEVKSEKNQEANLQVRPEIKSEEKTEMISKENLNVIPEAKKEGISEEIKPEVNTEVESKPEMNKEVKAEEGKTAPEVKLEEKQEVKPVEASEEKVEVKKEEVQDPKAKEMDELLKSEEYKFLRMSISYGERLVDRNDVYTKDSLKILRTELEKAKKVFQDKDNLTMKLVQDTRDDLERAIVDLVKISDVKKPVKSKAKVEVKKESNTEKKQEVKEQPAKAEVIVPEVKENKEIKKEEPVKAKEVVKEKKSREEEIEEILKSEEYRFLLKDIAYGERLSEKITVYTRDSLKVLNAAIEKAGRIVRQKEKLTVKLVQDTRDDVDRAIVDLVKKNN” belongs “failed”.
As for “MKRKWIDALWVMGVLLMAGFCLSACNRELDVQTVFPFEVSTMPVPKQIKQGETVEVRCSLVSEGDFSGTCYTMRFFQTEGKGVLRIGRGVALKPNDCYPVGKGDFRLYYTSQSKERQSLEIVFEDNHGQSQTIVLDFNHKESDEDKEREAGYRT”, the protein production result was “failed”.
With “MKRLADVKISTLDLVPVRHDKGPAESLRNSLSLAQHVEKLGYNRFWVAEHHNMDGIASSATSVLLAYLAGGTSTIRVGAGGIMLPNHAPLVVAEQFGTLASLYPDRIDLGLGRAPGSDQMTARALRRERSGSAEDFPDDVTELMEYLGPRTPDQKVIAVPGSGTNVPIWLLGSSLFSAQLAGMRGLPYAFASHFAPRYMHEAIRVYRNHFQPSAVLDKPYVMLGVPLSAADTDEQAEYLATSVYQRILALMRGHSLMQRPPVDSMDGLWLPHEREAVASFLGLAMVGGPEKIRAKLDVLLEQTDADELIFTCDMYEHEDRLRSYEILAQ”, the protein production entry was “failed”.
To “MKRLDLVAGPNGAGKSTFVALTLAPLLPGIVFVNADEIAKQRWPDDPTSHAYQAAQVAADTRARLIDLGRPFIAETVFSHPSKLELIRTARTAGYTVVLHVLVIPEGLAVERVRHRVAAGGHDVPETKIRERHRRLAELVAQAITLADGATVYDNSRLAGPRIVAQFSGGGIIGRACWPSWTPPPLMSRWSNRPETA” belongs “failed”; to “MKRLFLPLLGFLSLVLMCCNDNKESGTDSYDPNKPVTIDYFTPDTGRVAEKVIIIGNNFGNDKSAVTVLFTDNMEKENKAAVVGVDNTTIYCMAPRQAEGFNKITVKVNDQTVVADETFKYSVSENVSTIAGDFVQADGAGKDGSLAEATFGQMFGVACIDEQSGIVGQAWNNNSVRYISIDEDAVITIQSGPVVGKVAVSNDKTLAYGATINGANTVYVYKKSQAWVPSRLSDISSGTDVWAVALNGDNQWLYYVTANGRLGRIEVDNPTHNEILFEHNDFSGGPFAYIAYSAFEDCFYVTTDKNKILKVWVKEDGTHAYEQINQNNTGTTDGFLADEAKFQYLRGLTIDEDGNIFVCQGDNSHVIRKIAYDENMEKRYVTTVLGTSTVHGTDDGSPDIALFNGPQDISYDGNGGYWIAMRYEPALRKYSIE”, “failed”.
The same measure for “MKRLIVSSSVVLFMFLCSITITSAENNSVKVAFIRHHNLWIKVDGKEIQITKGEYITGPKWSYDGEWLAYVKGKKQSILELYRLKDGKKVTPFHSEASNYQWSPTENIIAFIFTGTLNTFDVEKKNADFENVSAGVGDYAWYPDGKNFLVSSEAHLLPTGWTGAQLYEVQKDAHMNPHKMKHLYALPNEHDDFLALVASGFKWSPDQKWISFLAVPTASWSADSNTLCLVRADGSRFEKVDQMLLNAQWFQWAPSKNILAYIEGSGRVALENKHLKVKELPALQQNIFTPKGYVDWDFVWKNDRVIIVSRAKEAGIETPPEKRPLPSLYEVDSTSNAQHQITKKTNKQGDYHPIFMKKSNQLIWIRSDRKKADVWLAHKDRKQEKKWIENIDVPAWYYEKWNWGNVISVKEE”: “failed”.
In the case of “MKRMHNPAHPGEVLREYLGELTVTNAAAKLGVSRVALSRILNGTNGISADMALRLEDALGTSAEMWAAMQFKYDLWVASQQPRPKITRLHV”, the protein production result is given as “failed”.
For “MKRPHGYQITSLRADKYGGYYAANFVGNEILYFDVNNNVNALVKDGFSYLKSPYDVIEANNLLYVTLYSSDEIGVYDKVLGVKRKSIGNKGTKDGELLAPQYMAIDKRNYIYVSEWGNKRVSKFGLEGDFILHFGSRTSGYKGLLGPTGVTYLNENIYVADSLRNTIEVFDTSGNHLYSVFTSIEGIEGLSSDFVGNNVIVSSKDGVYKYSIAKKTITKILKADKMNSKISSSILDANNQMIVSDFNNAKVSVYKSDASLYDSLEHHHHHH”, the protein production result is “not failed”.
As for “MKRQYYIGISLFITIIILVLDQITKFIIASSMKVGDSFEVIPNFLNITSHRNDGAAWGILSGKMSFFFIITIIILVVLIVFYIKEAKNNLLMQIAISLLFAGALGNFIDRVLHGEVVDFVDTYIFGYNFPIFNVADSSLTIGVLLIIIALLTDMKKEE”, the protein production entry is on record as “failed”.

The record behind these values is a protein production outcome set (Wang et al. 2014).
